Experimental findings from patent US20070031331A1 (Genentech, published 2007) are described below.

In assay [1] the target is T1, human CD20 (human, UniProt P11836 1-297).
T1 construct: whole, on cells; also called CD20 antigen; Bp35
T1 sequence (looked up): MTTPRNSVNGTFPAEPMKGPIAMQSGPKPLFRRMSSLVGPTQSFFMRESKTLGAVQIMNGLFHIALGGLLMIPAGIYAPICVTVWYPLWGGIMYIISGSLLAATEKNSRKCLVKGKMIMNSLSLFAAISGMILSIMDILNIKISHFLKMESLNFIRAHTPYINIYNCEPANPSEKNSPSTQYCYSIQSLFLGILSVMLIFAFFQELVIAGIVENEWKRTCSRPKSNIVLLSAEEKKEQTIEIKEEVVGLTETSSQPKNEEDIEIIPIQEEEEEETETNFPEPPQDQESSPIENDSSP
The experiment in a line: Scatchard analysis, cold antibody against 125I-2H7.v16 on WIL2-S cells, n=4.
Protocol: All dilutions were performed in binding assay buffer (DMEM media containing 1% bovine serum albumin, 25 mM HEPES pH 7.2, and 0.01% sodium azide). […] WIL2-S cells (60,000 cells in 0.025 mL) were then added. The plate was sealed and incubated at room temperature for 24 hours, then centrifuged for 15 min at 3,500 RPM. The supernatant was then aspirated and the cell pellet was washed and centrifuged. The supernatant was again aspirated, and the pellets were dissolved in 1N NaOH and transferred to tubes for gamma counting.

Assay [2] addresses T1, human CD20. Briefly: cell-based ELISA on WIL2-S cells; conc. 2H7.v16 / conc. variant. In general terms: An ELISA detects its analyte on a solid surface through an enzyme-linked reagent.
Protocol: To measure relative binding affinities to the CD20 antigen, a cell-based ELISA assay was developed. […] The cells were washed with PBS containing 1% fetal bovine serum (FBS) (assay buffer) and seeded at 250-300,000 cell/well in 96-well round bottom plates (Nunc, Roskilde, Denmark). […] The plates were buried in ice and incubated for 45 min. To remove the unbound antibody, 0.1 mL assay buffer was added to the wells. Plates were centrifuged and supernatants were removed. Cells were washed two more times with 0.2 mL assay buffer. Antibody bound to the plates was detected by adding peroxidase-conjugated goat anti-human Fc antibody (Jackson ImmunoResearch, West Grove, Pa.) to the plates. After a 45-min incubation, cells were washed as described before. TMB substrate (3,3′,5,5′-tetramethyl benzidine; Kirkegaard & Perry Laboratories, Gaithersburg, Md.) was added to the plates. The reaction was stopped by adding 1 M phosphoric acid. Titration curves were fit with a four-parameter nonlinear regression curve-fitting program ([…] ™, Synergy software, Reading, Pa.). The absorbance at the midpoint of the titration curve (mid-OD) and its corresponding concentration of the standard were determined. Then the concentration of each variant at this mid-OD was determined, and the concentration of the standard was divided by that of each variant.

B1: 2H7.v73 (antibody, IgG1)
heavy: not shown
light: DIQMTQSPSSLSASVGDRVTITCRASSSVSYLHWYQQKPGKAPKPLIYAPSNLASGVPSRFSGSGSGTDFTLTISSLQPEDFATYYCQQWSFNPPTFGQGTKVEIKRTVAAPSVFIFPPSDEQLKSGTASVVCLLNNFYPREAKVQWKVDNALQSGNSQESVTEQDSKDSTYSLSSTLTLSKADYEKHKVYACEVTHQGLSSPVTKSFNRGEC
notes: IgG1; changes relative to 2H7.v16; also called 2H7 version 73
Regarding B1, in the assay with human CD20 [1], the Kd (usually the free concentration of one partner at which half of the binding sites on the other are occupied at equilibrium, for simple one-to-one binding) amounted to 1.22 nM.

B2: 2H7.v75 (antibody, IgG1)
heavy: EVQLVESGGGLVQPGGSLRLSCAASGYTFTSYNMHWVRQAPGKGLEWVGAIYPGNGDTSYNQKFKGRFTISVDKSKNTLYLQMNSLRAEDTAVYYCARVVYYSASYWYFDVWGQGTLVTVSSASTKGPSVFPLAPSSKSTSGGTAALGCLVKDYFPEPVTVSWNSGALTSGVHTFPAVLQSSGLYSLSSVVTVPSSSLGTQTYICNVNHKPSNTKVDKKVEPKSCDKTHTCPPCPAPELLGGPSVFLFPPKPKDTLMISRTPEVTCVVVDVSHEDPEVKFNWYVDGVEVHNAKTKPREEQYNATYRVVSVLTVLHQDWLNGKEYKCKVSNKALPAPIAATISKAKGQPREPQVYTLPPSREEMTKNQVSLTCLVKGFYPSDIAVEWESNGQPENNYKTTPPVLDSDGSFFLYSKLTVDKSRWQQGNVFSCSVMHEALHNHYTQKSLSLSPGK
light: DIQMTQSPSSLSASVGDRVTITCRASSSVSYLHWYQQKPGKAPKPLIYAPSNLASGVPSRFSGSGSGTDFTLTISSLQPEDFATYYCQQWSFNPPTFGQGTKVEIKRTVAAPSVFIFPPSDEQLKSGTASVVCLLNNFYPREAKVQWKVDNALQSGNSQESVTEQDSKDSTYSLSSTLTLSKADYEKHKVYACEVTHQGLSSPVTKSFNRGEC
notes: IgG1; changes relative to 2H7.v16; also called 2H7 version 75
In the assay with human CD20 [1], B2 returned a Kd of 1.09 nM.

B3: 2H7.v166 (antibody, human IgG1, kappa, V domains shown)
VH: EVQLVESGGGLVQPGGSLRLSCAASGYTFTSYNMHWVRQAPGKGLEWVGAIYPGNGDTSYNQKFKGRFTISVDKSKNTLYLQMNSLRAEDTAVYYCARVVYYGGDWYFDVWGQGTLVTVSS
VL: DIQMTQSPSSLSASVGDRVTITCRASSSVSYMHWYQQKPGKAPKPLIYAPSNLASGVPSRFSGSGSGTDFTLTISSLQPEDFATYYCQQWSFNPPTFGQGTKVEIKR
notes: IgG1; changes relative to 2H7.v16; Y100b is deleted (written as a change to nothing); also called 2H7 version 166
In the assay with human CD20 [2], B3 came in with a Relative binding of 0.99 ratio.
